This note sets out measurements from the supplement of paper PMC5998384.

This data set concerns HeLa Kyoto. As to the kind of experiment: melting temperature (median over replicates), in situ; higher = more thermally stable.
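Also: HeLa Kyoto cells synchronized by double thymidine or nocodazole block, proteins quantified by TMT10plex mass spectrometry, three independent biological replicates.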

Chain of MSRB2 (chain, as listed by the source): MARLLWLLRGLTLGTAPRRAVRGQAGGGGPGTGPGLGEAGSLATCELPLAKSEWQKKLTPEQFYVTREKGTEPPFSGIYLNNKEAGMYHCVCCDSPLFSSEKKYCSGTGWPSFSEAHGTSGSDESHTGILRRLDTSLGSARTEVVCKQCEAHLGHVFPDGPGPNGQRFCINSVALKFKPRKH

For “MAELQMLLEEEIPGGRRALFDSYTNLERVADYCENNYIQSADKQRALEETKAYTTQSLASVAYLINTLANNVLQMLDIQASQLRRMESSINHISQTVDIHKEKVARREIGILTTNKNTSRTHKIIAPANLERPVRYIRKPIDYTILDDIGHGVKWLLRFKVSTQNMKMGGLPRTTPPTQKPPSPPMSGKGTLGRHSPYRTLEPVRPPVVPNDYVPSPTRNMAPSQQSPVRTASVNQRNRTYSSSGSSGGSHPSSRSSSRENSGSGSVGVPIAVPTPSPPSVFPAPAGSAGTPPLPATSASAPAPLVPATVPSSTAPNAAAGGAPNLADGFTSPTPPVVSSTPPTGHPVQFYSMNRPASRHTPPTIGGSLPYRRPPSITSQTSLQNQMNGGPFYSQNPVSDTPPPPPPVEEPVFDESPPPPPPPEDYEEEEAAVVEYSDPYAEEDPPWAPRSYLEKVVAIYDYTKDKEDELSFQEGAIIYVIKKNDDGWYEGVMNGVTGLFPGNYVESIMHYSE [ABI2]”, the melting temperature was 52.3 °C (cell cycle stage: G1/S) and 52.5 °C (cell cycle stage: mitosis). Consider “MLILTKTAGVFFKPSKRKVYEFLRSFNFHPGTLFLHKIVLGIETSCDDTAAAVVDETGNVLGEAIHSQTEVHLKTGGIVPPAAQQLHRENIQRIVQEALSASGVSPSDLSAIATTIKPGLALSLGVGLSFSLQLVGQLKKPFIPIHHMEAHALTIRLTNKVEFPFLVLLISGGHCLLALVQGVSDFLLLGKSLDIAPGDMLDKVARRLSLIKHPECSTMSGGKAIEHLAKQGNRFHFDIKPPLHHAKNCDFSFTGLQHVTDKIIMKKEKEEGIEKGQILSSAADIAATVQHTMACHLVKRTHRAILFCKQRDLLPQNNAVLVASGGVASNFYIRRALEILTNATQCTLLCPPPRLCTDNGIMIAWNGIERLRAGLGILHDIEGIRYEPKCPLGVDISKEVGEASIKVPQLKMEI [OSGEPL1]”, for which the melting temperature was 53.6 °C (cell cycle stage: G1/S) and 51.1 °C (cell cycle stage: mitosis). As to “MAAEADGPLKRLLVPILLPEKCYDQLFVQWDLLHVPCLKILLSKGLGLGIVAGSLLVKLPQVFKILGAKSAEGLSLQSVMLELVALTGTMVYSITNNFPFSSWGEALFLMLQTITICFLVMHYRGQTVKGVAFLACYGLVLLVLLSPLTPLTVVTLLQASNVPAVVVGRLLQAATNYHNGHTGQLSAITVFLLFGGSLARIFTSIQETGDPLMAGTFVVSSLCNGLIAAQLLFYWNAKPPHKQKKAQ [MPDU1]”, the melting temperature was 59.2 °C (cell cycle stage: G1/S) and 59.2 °C (cell cycle stage: mitosis).

Where the note is “cell cycle stage: mitosis”, “MAAAAAGLGGGGAGPGPEAGDFLARYRLVSNKLKKRFLRKPNVAEAGEQFGQLGRELRAQECLPYAAWCQLAVARCQQALFHGPGEALALTEAARLFLRQERDARQRLVCPAAYGEPLQAAASALGAAVRLHLELGQPAAAAALCLELAAALRDLGQPAAAAGHFQRAAQLQLPQLPLAALQALGEAASCQLLARDYTGALAVFTRMQRLAREHGSHPVQSLPPPPPPAPQPGPGATPALPAALLPPNSGSAAPSPAALGAFSDVLVRCEVSRVLLLLLLQPPPAKLLPEHAQTLEKYSWEAFDSHGQESSGQLPEELFLLLQSLVMATHEKDTEAIKSLQVEMWPLLTAEQNHLLHLVLQETISPSGQGV [F8A1]” returned a melting temperature of 50.9 °C. For “MGSRWSSEEERQPLLGPGLGPGLGASWRSREAAAAALPAAVPGPGRVYGRRWLVLLLFSLLAFVQGLVWNTWGPIQNSARQAYGFSSWDIALLVLWGPIGFLPCFAFMWLLDKRGLRITVLLTSFLMVLGTGLRCIPISDLILKRRLIHGGQMLNGLAGPTVMNAAPFLSTTWFSADERATATAIASMLSYLGGACAFLVGPLVVPAPNGTSPLLAAESSRAHIKDRIEAVLYAEFGVVCLIFSATLAYFPPRPPLPPSVAAASQRLSYRRSVCRLLSNFRFLMIALAYAIPLGVFAGWSGVLDLILTPAHVSQVDAGWIGFWSIVGGCVVGIAMARFADFIRGMLKLILLLLFSGATLSSTWFTLTCLNSITHLPLTTVTLYASCILLGVFLNSSVPIFFELFVETVYPVPEGITCGVVTFLSNMFMGVLLFFLTFYHTELSWFNWCLPGSCLLSLLLILCFRESYDRLYLDVVVSV [DIRC2]”, under “cell cycle stage: G1/S”, the melting temperature is 54.8 °C.

With “MAPRGRKRKAEAAVVAVAEKREKLANGGEGMEEATVVIEHCTSURVYGRNAAALSQALRLEAPELPVKVNPTKPRRGSFEVTLLRPDGSSAELWTGIKKGPPRKLKFPEPQEVVEELKKYLS [C11ORF31]”, under “cell cycle stage: mitosis”, the melting temperature amounted to 52.2 °C.

For MSRB2, the melting temperature turned out to be 52.4 °C (cell cycle stage: G1/S) and 52.6 °C (cell cycle stage: mitosis). Regarding “MKPNFSLRLRIFNLNCWGIPYLSKHRADRMRRLGDFLNQESFDLALLEEVWSEQDFQYLRQKLSPTYPAAHHFRSGIIGSGLCVFSKHPIQELTQHIYTLNGYPYMIHHGDWFSGKAVGLLVLHLSGMVLNAYVTHLHAEYNRQKDIYLAHRVAQAWELAQFIHHTSKKADVVLLCGDLNMHPEDLGCCLLKEWTGLHDAYLETRDFKGSEEGNTMVPKNCYVSQQELKPFPFGVRIDYVLYKAVSGFYISCKSFETTTGFDPHRGTPLSDHEALMATLFVRHSPPQQNPSSTHGPAERSPLMCVLKEAWTELGLGMAQARWWATFASYVIGLGLLLLALLCVLAAGGGAGEAAILLWTPSVGLVLWAGAFYLFHVQEVNGLYRAQAELQHVLGRAREAQDLGPEPQPALLLGQQEGDRTKEQ [SMPD2]”, the melting temperature (cell cycle stage: mitosis) is 55.7 °C. Where the note is “cell cycle stage: mitosis”, “MPSSLPGSQVPHPTLDAVDLVEKTLRNEGTSSSAPVLEEGDTDPWTLPQLKDTSQPWKELRVAGRLRRVAGSVLKACGLLGSLYFFICSLDVLSSAFQLLGSKVAGDIFKDNVVLSNPVAGLVIGVLVTALVQSSSTSSSIVVSMVAAKLLTVRVSVPIIMGVNVGTSITSTLVSMAQSGDRDEFQRAFSGSAVHGIFNWLTVLVLLPLESATALLERLSELALGAASLTPRAQAPDILKVLTKPLTHLIVQLDSDMIMSSATGNATNSSLIKHWCGTTGQPTQENSSCGAFGPCTEKNSTAPADRLPCRHLFAGTELTDLAVGCILLAGSLLVLCGCLVLIVKLLNSVLRGRVAQVVRTVINADFPFPLGWLGGYLAVLAGAGLTFALQSSSVFTAAVVPLMGVGVISLDRAYPLLLGSNIGTTTTALLAALASPADRMLSALQVALIHFFFNLAGILLWYLVPALRLPIPLARHFGVVTARYRWVAGVYLLLGFLLLPLAAFGLSLAGGMELAAVGGPLVGLVLLVILVTVLQRRRPAWLPVRLRSWAWLPVWLHSLEPWDRLVTRCCPCNVCSPPKATTKEAYCYENPEILASQQL [SLC34A3]” yielded a melting temperature of 57.5 °C. For “MKKTPVFLESLVTNMLRLRAICPFSWRVFQFRPISCEPLIIQMNKCTDEEQMFGFIERNKAILSEKQVGCAFDMLWKLQKQKTSLLKNAEYVRDHPQFLTLHNLATNKFKLMNDDTLVNVLYVTQQFAGEAHDPLVEALVTEAWRRLERFDIKLLSEFSSCLADQHLYFSPLMGKIADIVHRNLETTQDLSSLSVLMVNISSLISRHFQQQLVNKTELLFDTIDSSEVNVAKSIAKFLRNVRYRYQPLLERCNNVFLSNVDHLDLDSISKILSVYKFLQFNSFEFIIMAKKKLTEMIPLCNHPASFVKLFVALGPIAGPEEKKQLKSTMLLMSEDLTGEQALAVLGAMGDMESRNSCLIKRVTSVLHKHLDGYKPLELLKITQELTFLHFQRKEFFAKLRELLLSYLKNSFIPTEVSVLVRAISLLPSPHLDEVGISRIEAVLPQCDLNNLSSFATSVLRWIQHDHMYLDNMTAKQLKLLQKLDHYGRQRLQHSNSLDLLRKELKSLKGNTFPESLLEEMIATLQHFMDDINYINVGEIASFISSTDYLSTLLLDRIASVAVQQIEKIHPFTIPAIIRPFSVLNYDPPQRDEFLGTCVQHLNSYLGILDPFILVFLGFSLATLEYFPEDLLKAIFNIKFLARLDSQLEILSPSRSARVQFHLMELNRSVCLECPEFQIPWFHDRFCQQYNKGIGGMDGTQQQIFKMLAEVLGGINCVKASVLTPYYHKVDFECILDKRKKPLPYGSHNIALGQLPEMPWESNIEIVGSRLPPGAERIALEFLDSKALCRNIPHMKGKSAMKKRHLEILGYRVIQISQFEWNSMALSTKDARMDYLRECIFGEVKSCL [FASTKD1]”, the melting temperature (cell cycle stage: mitosis) was found to be 49.9 °C. For the substance “MAGAGPTMLLREENGCCSRRQSSSSAGDSDGEREDSAAERARQQLEALLNKTMRIRMTDGRTLVGCFLCTDRDCNVILGSAQEFLKPSDSFSAGEPRVLGLAMVPGHHIVSIEVQRESLTGPPYL [NAA38]”, the melting temperature by setting is: (cell cycle stage: G1/S) 52.1 °C; (cell cycle stage: mitosis) 52.4 °C.
